In publication PMC6627510, “The Role of a Key Amino Acid Position in Species-Specific Proteinaceous dUTPase Inhibition” (Biomolecules, 2019) one finds stoichiometry N, decrease of the steady-state velocity of dUTPase on Stl addition and Ki data, which are given here for two substances.

The target in assay [1] is Escherichia coli dUTPase Q93H mutant (Escherichia coli). The assay is described as follows: crystal structure; EcDUT^Q93H with 5 mM dUPNPP; hanging drop, 0.1 M TRIS, 18-33.75 % PEG 3350, 400 mM NaAc, pH 7.5, 295 K.
For assay [2] the target is unchanged.
Assay [3] deals with Escherichia coli dUTPase Q93R mutant (Escherichia coli).
Assay [4] has as its target Escherichia coli dUTPase Q93H mutant (Escherichia coli). Briefly: steady-state enzyme inhibition; 50 nM dUTPase, 0-400 nM Stl, 5 min pre-incubation at 20 °C, 30 µM dUTP; 1 mM HEPES, 150 mM KCl, 5 mM MgCl2, 40 µM phenol red, pH 7.5; quadratic equation fitted, K is the Ki (IC50).
The target of assay [5] is Escherichia coli dUTPase Q93R mutant (Escherichia coli). Described as above.

For orientation: stoichiometry N means a count of units in the complex or per binding partner. Turning to “Escherichia coli dUTPase Q93H mutant (enzyme)”, the stoichiometry N in assay [1] was 3.

For orientation: Ki means a measure of affinity in units of concentration, obtained from inhibition or displacement. For “Stl_(SaPIbov1) protein (staphylococcal repressor) (natural protein)”, the decrease of the steady-state velocity of dUTPase on Stl addition in assay [2] turned out to be 58%; in assay [3] it was 47%. Moreover, the Ki is 4.83 nM in assay [4] and 5.9 nM in assay [5].
